Measured values taken from patent US5677159A, “Genomic DNA of human cholesterol 7α-hydroxylase and methods for using it” (Northeastern Ohio University, priority 1995, dated 1997).

System: T1, CC(C)CCC[C@@H](C)[C@H]1CC[C@H]2[C@@H]3CC=C4C[C@@H](O)CC[C@]4(C)[C@H]3CC[C@]12C
T1 construct: Met-Ala (from the NcoI cloning site) in front of Arg25 (N); made in house; host or cells: E. coli TOPP3 carrying pJL/H7α1.5 (ATCC 69401)
Experiment: Reconstitution assay of cholesterol 7α-hydroxylase activity at different concentrations of cholesterol (Lineweaver-Burke plot)
Type: biochemical, human
Conditions: other: purified truncated enzyme reconstituted with NADPH-cytochrome P450 reductase and phospholipid, 1 mM NADPH, 37° C., 20 minutes, pH 7.4
Description: FIG. 10 illustrates a Lineweaver-Burke plot of activities of truncated human and truncated rat cholesterol 7α-hydroxylase in E. coli. Truncated CYP7 activity was measured using a reconstitution assay, such as that described in Example 10, at different concentrations of cholesterol, as indicated. Linear regression was used to draw the line.
The truncated enzyme was purified from recombinant bacteria. Purification methodology is described by Li and Chiang, J. Biol. Chem. 266 (29): 19186 (1991), the contents of which are expressly incorporated by reference herein in its entirety. The activity of CYP7, in both the presence and absence of the compound, is measured as described by Chiang, Meth. Enzym. 206: 483 (1991), the contents of which is expressly incorporated by reference herein in its entirety. […]
The Km and Vmax for cholesterol have been determined in comparison with the truncated, bacterially expressed rat CYP7 enzyme (FIG. 10). […]

Work on “truncated human cholesterol 7α-hydroxylase (CYP7), amino acids 1 to 24 of the membrane anchor region deleted, SEQ ID NO:5, expressed in E. coli TOPP3-pJL/H7α1.5 (Homo sapiens)” yielded a Km of 5.85 µM and a Vmax of 0.13 nmol/min.
